Tested on: Nc1ccn([C@@H]2O[C@H](CO)[C@@H](O)C2(F)F)c(=O)n1
Experiment: cells, lysate or membranes named
Details: other: ATP donor, 10 nM dCK, no masitinib

Sequence of human deoxycytidine kinase (dCK) (Homo sapiens) (chain, as listed by the source): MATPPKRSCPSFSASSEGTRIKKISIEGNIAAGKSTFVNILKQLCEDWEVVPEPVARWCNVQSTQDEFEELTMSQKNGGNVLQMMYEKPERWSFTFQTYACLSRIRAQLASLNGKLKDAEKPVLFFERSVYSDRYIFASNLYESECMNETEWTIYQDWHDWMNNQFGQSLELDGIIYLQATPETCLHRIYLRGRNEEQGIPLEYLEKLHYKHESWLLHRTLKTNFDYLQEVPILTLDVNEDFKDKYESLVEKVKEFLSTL

In the case of “human deoxycytidine kinase (dCK) (Homo sapiens)”, the Km is reported as 1 ± 0.3 µM.

From patent publication US20150290235A1, “USE OF SMALL MOLECULE INHIBITORS/ACTIVATORS IN COMBINATION WITH (DEOXY)NUCLEOSIDE OR (DEOXY)NUCLEOTIDE ANALOGS FOR TREATMENT OF CANCER AND HEMATOLOGICAL MALIGNANCIES OR VIRAL INFECTIONS” (AB SCIENCE, priority 2012, published 2015)
